Laboratory results published in patent publication US20030119077A1.

Tests used:
cytokeratin protein [1] = experiment: cytokeratin immunocytochemistry (CAM5.2-FITC) on fixed PC-3 cells; percent of cells stained
cytokeratin protein [2] = experiment: cytokeratin immunocytochemistry (CAM5.2-FITC) on fixed TSU-PRI cells; percent of cells stained
cytokeratin protein [3] = experiment: cytokeratin immunocytochemistry (CAM5.2-FITC) on fixed LNCaP cells; percent of cells stained
cytokeratin protein [4] = experiment: cytokeratin immunocytochemistry (CAM5.2-FITC) on fixed DUMS cells; percent of cells stained

Percentage of positive staining (cytokeratin protein [1]): 100%
Percentage of positive staining (cytokeratin protein [2]): 100%
Percentage of positive staining (cytokeratin protein [3]): 100%
Percentage of positive staining (cytokeratin protein [4]): 100%
Substance: FITC conjugated Anti-Cytokeratin (CAM5.2) monoclonal antibody (Becton-Dickinson, Cat. 347653)
